Target: HA-ZFP-5475-KOX1 (Artificial)
Test: ChIP with anti-HA in HEK293 cells, relative to GAPDH control; GFP-KOX and non-specific ZFP TF gave no significant enrichment
Method: FIG. 2A is a graph depicting repression of CHK2 expression by ZFP-5475 in cultured cells. Black bars show mRNA levels upon administration of 250 ng of plasmid. Gray bars shown mRNA levels upon administration of 62.5 ng of plasmid and the white bars show mRNA levels upon administration of 15 ng of plasmid. HEK293 cells transfected with the plasmids indicated were assayed for CHK2 mRNA by quantitative RT-PCR (TaqMan) after 72 hrs. The CHK2 mRNA levels were normalized relative to an internal control of GAPDH mRNA, and are expressed as this ratio. Charts represent data from a minimum of two independent experiments, with means and standard deviations shown. Transfection efficiency was assessed in each independent experiment via the use of a GFP expression plasmid control, in all experiments an apparent efficiency of 80-90% GFP positive cells was observed. FIG. 2B is a graph depicting binding of ZFP-5475 to its intended target site within the CHK2 promoter in vivo. […] Enrichment was quantified by RT-PCR Results are expressed as the fold-increase of the ratio to the GAPDH control relative to the results for non-transfected cells, the value of which is arbitrarily set to 1. The same samples were analyzed with primers specific for the p16 locus as a second internal control (open bars). […]

B1: CHK2 promoter ZFP-5475 target site (dsDNA)
DNA 1: ACCCGGGTTCCCCTCGGG
DNA 2: CCCGAGGGGAACCCGGGT
binding signal: ~65 fold enrichment

From patent publication US7407776, “Engineered zinc finger proteins for regulation of gene expression” (Sangamo Biosciences, Inc.)
